According to the supplement of paper PMC6379048:

Tests used:
Experiment in all cases: EC50 of free RNA motif oligo competing protein binding to immobilised probe
[1] = target: PABPC1 (UniProt P11940)
Procedure, shortened: (§1)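 Free RNA oligos (0 nM to 30 μM) were pre-incubated with HEK293-FT lysate (2.5 mg protein/well) for 1 h at 4°C, followed by 30 min at 4°C with the same 5′-amino-C6 oligos coupled to NHS-Sepharose beads. Bound proteins were quantified by label-free LC-MS/MS and normalised to the control. EC50 was derived from a four-parameter log-logistic fit, and Kd was obtained by multiplying EC50 by a protein-dependent depletion factor.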

[2] = target: T1, XAB2 (UniProt Q9HCS7)
T1 sequence: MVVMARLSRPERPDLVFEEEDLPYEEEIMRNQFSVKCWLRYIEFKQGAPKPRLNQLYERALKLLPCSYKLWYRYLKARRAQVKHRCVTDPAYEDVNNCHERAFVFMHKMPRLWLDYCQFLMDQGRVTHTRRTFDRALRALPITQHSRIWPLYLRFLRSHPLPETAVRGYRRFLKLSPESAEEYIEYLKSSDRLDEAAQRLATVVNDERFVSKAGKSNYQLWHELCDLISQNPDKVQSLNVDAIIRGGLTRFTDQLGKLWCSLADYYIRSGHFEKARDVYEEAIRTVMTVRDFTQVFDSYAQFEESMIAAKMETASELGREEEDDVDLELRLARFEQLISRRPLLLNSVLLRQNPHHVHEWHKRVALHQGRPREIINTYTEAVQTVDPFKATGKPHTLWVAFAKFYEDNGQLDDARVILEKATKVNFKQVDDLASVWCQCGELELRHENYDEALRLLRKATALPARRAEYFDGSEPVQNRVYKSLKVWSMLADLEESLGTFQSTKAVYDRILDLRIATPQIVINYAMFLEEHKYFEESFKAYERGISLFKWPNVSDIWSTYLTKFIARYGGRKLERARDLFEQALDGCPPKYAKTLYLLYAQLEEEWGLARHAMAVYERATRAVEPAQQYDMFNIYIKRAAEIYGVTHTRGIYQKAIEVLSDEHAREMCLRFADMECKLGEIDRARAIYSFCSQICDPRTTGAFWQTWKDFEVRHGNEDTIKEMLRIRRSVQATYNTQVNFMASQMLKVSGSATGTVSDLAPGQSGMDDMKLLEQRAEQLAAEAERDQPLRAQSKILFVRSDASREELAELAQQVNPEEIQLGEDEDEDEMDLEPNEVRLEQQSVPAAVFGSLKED
Procedure, shortened: as §1

[3] = target: T2, DAZAP1 (UniProt Q96EP5)
T2 sequence: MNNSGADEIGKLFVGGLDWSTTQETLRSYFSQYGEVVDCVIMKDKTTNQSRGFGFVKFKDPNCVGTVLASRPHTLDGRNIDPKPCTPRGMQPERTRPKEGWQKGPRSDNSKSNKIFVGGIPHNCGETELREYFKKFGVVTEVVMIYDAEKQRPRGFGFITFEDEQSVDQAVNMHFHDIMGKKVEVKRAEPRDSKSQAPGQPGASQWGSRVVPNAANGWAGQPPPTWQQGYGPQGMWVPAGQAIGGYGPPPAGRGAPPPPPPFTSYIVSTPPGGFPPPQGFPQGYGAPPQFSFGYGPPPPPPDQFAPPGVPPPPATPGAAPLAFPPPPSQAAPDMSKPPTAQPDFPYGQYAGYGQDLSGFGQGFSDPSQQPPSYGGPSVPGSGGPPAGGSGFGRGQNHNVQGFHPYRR
Procedure, shortened: as §1

Sequence of PABPC1 (P11940 whole entry): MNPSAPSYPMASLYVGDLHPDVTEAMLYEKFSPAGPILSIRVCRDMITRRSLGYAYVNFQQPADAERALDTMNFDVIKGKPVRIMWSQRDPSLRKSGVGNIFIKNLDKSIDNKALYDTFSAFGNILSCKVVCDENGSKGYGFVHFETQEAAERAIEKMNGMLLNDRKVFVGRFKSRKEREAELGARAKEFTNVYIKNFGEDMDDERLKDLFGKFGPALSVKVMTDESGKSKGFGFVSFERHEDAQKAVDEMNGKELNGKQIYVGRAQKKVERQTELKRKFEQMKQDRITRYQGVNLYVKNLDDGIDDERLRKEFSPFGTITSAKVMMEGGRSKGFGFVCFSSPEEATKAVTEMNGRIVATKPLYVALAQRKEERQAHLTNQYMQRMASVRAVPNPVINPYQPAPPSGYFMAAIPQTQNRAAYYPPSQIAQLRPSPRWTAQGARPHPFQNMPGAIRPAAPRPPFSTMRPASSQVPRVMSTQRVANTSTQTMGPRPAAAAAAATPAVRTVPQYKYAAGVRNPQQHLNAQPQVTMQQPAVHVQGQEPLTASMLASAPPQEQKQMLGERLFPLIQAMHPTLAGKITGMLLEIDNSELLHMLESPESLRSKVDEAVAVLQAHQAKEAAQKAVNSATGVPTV

Row | Sequence | EC50 [1] [nM] | EC50 [2] [nM] | EC50 [3] [nM]
1 | AAUAAA | 10100 | 1370 | 1240
2 | CUGUCCU | 199 | – | –
3 | UAUUUAU | – | 601 | 1220
